The results in this text go back to US20100266609A1 (UCB, published 2010).

In experiment [1] the target is T1, Recombinant IL-17A/F heterodimer (human).
T1 construct: also called human recombinant IL-17A/F heterodimer; heterodimer A/F
Kind of experiment: SPR (Biacore 3000, 25°C), antibody captured by anti-mouse IgG Fc, cytokine titrated from 25 nM. How it is done: All experiments were performed at 25° C.
Double referenced background subtracted binding curves were analysed using the BIAevaluation software (version 3.2) following standard procedures. Kinetic parameters were determined from the fitting algorithm.
Background: SPR reads the build-up and loss of mass on a sensor chip optically.

Experiment [2] has as its target T2, IL-17 E (UniProt Q9H293 33-177, limits assumed).
T2 sequence (looked up): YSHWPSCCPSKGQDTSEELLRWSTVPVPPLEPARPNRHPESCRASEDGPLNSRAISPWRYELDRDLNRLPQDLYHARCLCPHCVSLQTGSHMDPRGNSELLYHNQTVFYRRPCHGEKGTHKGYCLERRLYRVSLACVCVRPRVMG
Briefly: SPR (Biacore 3000), antibody captured by anti-human IgG Fc, cytokine in solution. The method, then: (§1) BIA (Biamolecular Interaction Analysis) was performed using a Biacore 3000 (Biacore AB). All experiments were performed at 25° C. Affinipure Fc Fragment goat anti-human IgG, Fc fragment specific (Jackson ImmunoResearch) was immobilised on a CM5 Sensor Chip via amine coupling chemistry to a capture level of ≈6000 response units (RUs). HSS-EP buffer (10 mM HEPES pH 7.4, 0.15 M NaCl, 3 mM EDTA, 0.005% Surfactant P20, Biacore AB) was used as the running buffer with a flow rate of 10 μl/min. […] The surface was regenerated by a 30 μL injections of 40 mM HCl, followed by one 5 μL injection of 5 mM NaOH.
(§2) Background subtraction binding curves were double referenced and analysed using the BIAevaluation software (version 3.2) following standard procedures. Kinetic parameters were determined from the fitting algorithm.

The target in experiment [3] is T3, IL-17 B (UniProt Q9UHF5 21-180, limits assumed).
T3 sequence (looked up): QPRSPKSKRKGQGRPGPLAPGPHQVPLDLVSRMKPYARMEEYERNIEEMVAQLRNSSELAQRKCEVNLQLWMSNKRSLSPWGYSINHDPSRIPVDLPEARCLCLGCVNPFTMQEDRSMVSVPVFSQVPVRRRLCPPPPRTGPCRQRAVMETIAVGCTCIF
The description is as above. How it is done: as §1, §2

Experiment [4] concerns the target T4, IL-17 C (UniProt Q9P0M4 19-197, limits assumed).
T4 sequence (looked up): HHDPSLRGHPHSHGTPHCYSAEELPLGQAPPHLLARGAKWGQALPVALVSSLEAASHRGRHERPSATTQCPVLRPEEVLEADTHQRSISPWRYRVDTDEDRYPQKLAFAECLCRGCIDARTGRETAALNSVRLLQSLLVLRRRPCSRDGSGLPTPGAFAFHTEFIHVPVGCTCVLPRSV
The experiment is described as above. The method, then: as §1, §2

In experiment [5] the target is T5, IL-17 D (UniProt Q8TAD2 18-202, limits assumed).
T5 sequence (looked up): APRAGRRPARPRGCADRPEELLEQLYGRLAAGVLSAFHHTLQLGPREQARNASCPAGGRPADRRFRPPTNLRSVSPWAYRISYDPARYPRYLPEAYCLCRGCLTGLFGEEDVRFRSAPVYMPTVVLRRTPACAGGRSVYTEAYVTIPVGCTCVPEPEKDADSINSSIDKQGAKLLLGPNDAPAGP
The description is as above. The method, then: as §1, §2

A word on the Kd: it is a measure of binding affinity in units of concentration.

T1 sequence (chain, as listed by the source limits assumed): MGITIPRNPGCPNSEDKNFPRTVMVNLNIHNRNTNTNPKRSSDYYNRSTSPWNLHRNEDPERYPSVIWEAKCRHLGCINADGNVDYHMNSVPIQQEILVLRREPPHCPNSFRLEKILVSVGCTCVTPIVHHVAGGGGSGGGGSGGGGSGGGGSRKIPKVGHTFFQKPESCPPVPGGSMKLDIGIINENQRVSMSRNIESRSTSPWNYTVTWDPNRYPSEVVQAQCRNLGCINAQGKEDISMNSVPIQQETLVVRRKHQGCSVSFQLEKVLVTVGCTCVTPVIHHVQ

B1: Antibody CA028-0496 (murine IgG1 constant regions) (antibody, V domains shown)
VH: EVQLVESGGGLVQPGGSLRLSCAASGFTFSDYNMAWVRQAPGKGLEWVATITYEGRNTYYRDSVKGRFTISRDNAKNSLYLQMNSLRAEDTAVYYCASPPQYYEGSIYRLWFAHWGQGTLVTVSS
VL: AIQLTQSPSSLSASVGDRVTITCRADESVTTLMHWYQQKPGKAPKLLIYLVSNRESGVPSRFSGSGSGTDFTLTISSLQPEDFATYYCQQTWSDPWTFGQGTKVEIKR
notes: not shown: murine IgG1 heavy chain constant region; murine light chain constant region
As to B1, in experiment [1], the Kd was found to be 116 pM.

B2: Antibody CA028-0496 (human IgG4 constant regions) (antibody, V domains shown)
VH: EVQLVESGGGLVQPGGSLRLSCAASGFTFSDYNMAWVRQAPGKGLEWVATITYEGRNTYYRDSVKGRFTISRDNAKNSLYLQMNSLRAEDTAVYYCASPPQYYEGSIYRLWFAHWGQGTLVTVSS
VL: AIQLTQSPSSLSASVGDRVTITCRADESVTTLMHWYQQKPGKAPKLLIYLVSNRESGVPSRFSGSGSGTDFTLTISSLQPEDFATYYCQQTWSDPWTFGQGTKVEIKR
notes: human gamma-4 constant region with the hinge mutation S241P and human C-kappa (Km3), made in CHO cells
In the case of B2, the binding result in experiment [2], in experiment [3], in experiment [4] and in experiment [5] was “no binding (tested: doubling dilutions from 50 nM to sub nM)” each time.
